From paper PMC4055408, “The Transcription Factor TFII-I Promotes DNA Translesion Synthesis and Genomic Stability” (PLoS Genetics, 2014)

B1: Rev3L RBM (residues 1847–1898) (domain or fragment, human, UniProt O60673 1847-1898, looked up)
chain: MLTPTPDSSPRSTSSPSQSKNGSFTPRTANILKPLMSPPSREEIMATLLDHD
notes: The Rev3L chain of m12; also called Rev3L fragment; source: recombinant, purified together with His6-Rev7 R124A; prepared as previously described
B2: TFII-I^1–667 fragment (domain or fragment, human, UniProt P78347 1-667, looked up)
chain: MAQVAMSTLPVEDEESSESRMVVTFLMSALESMCKELAKSKAEVACIAVYETDVFVVGTERGRAFVNTRKDFQKDFVKYCVEEEEKAAEMHKMKSTTQANRMSVDAVEIETLRKTVEDYFCFCYGKALGKSTVVPVPYEKMLRDQSAVVVQGLPEGVAFKHPENYDLATLKWILENKAGISFIIKRPFLEPKKHVGGRVMVTDADRSILSPGGSCGPIKVKTEPTEDSGISLEMAAVTVKEESEDPDYYQYNIQAGPSETDDVDEKQPLSKPLQGSHHSSEGNEGTEMEVPAEDSTQHVPSETSEDPEVEVTIEDDDYSPPSKRPKANELPQPPVPEPANAGKRKVREFNFEKWNARITDLRKQVEELFERKYAQAIKAKGPVTIPYPLFQSHVEDLYVEGLPEGIPFRRPSTYGIPRLERILLAKERIRFVIKKHELLNSTREDLQLDKPASGVKEEWYARITKLRKMVDQLFCKKFAEALGSTEAKAVPYQKFEAHPNDLYVEGLPENIPFRSPSWYGIPRLEKIIQVGNRIKFVIKRPELLTHSTTEVTQPRTNTPVKEDWNVRITKLRKQVEEIFNLKFAQALGLTEAVKVPYPVFESNPEFLYVEGLPEGIPFRSPTWFGIPRLERIVRGSNKIKFVVKKPELVISYLPPGMASKINTKALQ
notes: source: bacteria, GST fusion, purified (glutathione-Sepharose 4B, PreScission, anion exchange, size exclusion)
B3: TFII-I fragment (residues 350–667) containing R2-R4 (domain or fragment, human, UniProt P78347 350-667, looked up)
chain: NFEKWNARITDLRKQVEELFERKYAQAIKAKGPVTIPYPLFQSHVEDLYVEGLPEGIPFRRPSTYGIPRLERILLAKERIRFVIKKHELLNSTREDLQLDKPASGVKEEWYARITKLRKMVDQLFCKKFAEALGSTEAKAVPYQKFEAHPNDLYVEGLPENIPFRSPSWYGIPRLEKIIQVGNRIKFVIKRPELLTHSTTEVTQPRTNTPVKEDWNVRITKLRKQVEEIFNLKFAQALGLTEAVKVPYPVFESNPEFLYVEGLPEGIPFRSPTWFGIPRLERIVRGSNKIKFVVKKPELVISYLPPGMASKINTKALQ
notes: as for B2
B4: Rev1 CTD (residues 1140–1251) (domain or fragment, human, UniProt Q9UBZ9 1140-1251, looked up)
chain: GLSSLQSDPAGCVRPPAPNLAGAVEFNDVKTLLREWITTISDPMEEDILQVVKYCTDLIEEKDLEKLDLVIKYMKRLMQQSVESVWNMAFDFILDNVQVVLQQTYGSTLKVT
notes: Rev1 C-terminal domain, residues 1140-1251; also called C-terminal domain (CTD) of Rev1; source: bacteria, GST fusion, purified (glutathione-Sepharose 4B, PreScission, anion exchange, size exclusion)

Tests used:
[1] = molecular target: T1, His6-Rev7 R124A (human, UniProt Q9UI95 1-211, R124A); assay: SEC; purified recombinant proteins mixed (1:1:1 molar ratios for Figure 1E) and fractionated on Superdex 200 10/300 GL; fractions on SDS-PAGE, Coomassie; settings: both partners purified
T1 construct: human Rev7 with R124A (disrupts Rev7 dimerization); The Rev7 chain of m12, written alone for the pairs that touch inside the reconstituted complexes; source: prepared as previously described

[2] = molecular target: the molecule itself; assay: SEC; single purified TFII-I fragments fractionated on Superdex 200; apparent molecular mass against standards; monomer or homodimer
[3] = molecular target: T2, Rev7 R124A–Rev3L (residues 1847–1898) complex (human, UniProt Q9UI95 1-211; O60673 1847-1898, R124A); assay: SEC; purified recombinant proteins mixed (1:1:1 molar ratios for Figure 1E) and fractionated on Superdex 200 10/300 GL; fractions on SDS-PAGE, Coomassie; settings: both partners purified
T2 construct: human Rev7 with R124A (disrupts Rev7 dimerization); also called Rev7–Rev3L; source: recombinant, purified; prepared as previously described; copies: 1 + 1
T2 sequence (Q9UI95 whole entry R124A, the tested form may be a part, one chain of several): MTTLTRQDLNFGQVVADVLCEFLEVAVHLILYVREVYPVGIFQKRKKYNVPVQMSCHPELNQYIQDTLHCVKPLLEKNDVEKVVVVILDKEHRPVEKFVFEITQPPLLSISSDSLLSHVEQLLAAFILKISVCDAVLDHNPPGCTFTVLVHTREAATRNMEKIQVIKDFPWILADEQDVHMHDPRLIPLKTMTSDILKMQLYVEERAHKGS

T1 sequence (Q9UI95 whole entry R124A): as the sequence (Q9UI95 whole entry R124A, the tested form may be a part, one chain of several) above

Row | Binder | stoichiometry N [3] | other results
1 | B1 |  | binding result [1]: binds
2 | B2 |  | stoichiometry N [2]: 2
3 | B3 | 1 | 
4 | B4 | 1 | 
